From patent US11224662B2, “Methods and therapeutics comprising ligand-targeted ELPs” (priority 2012, dated 2022)

B1: (VPGSG)96 (SEQ ID. NO: 13) (protein)
chain: VPGSGVPGSGVPGSGVPGSGVPGSGVPGSGVPGSGVPGSGVPGSGVPGSGVPGSGVPGSGVPGSGVPGSGVPGSGVPGSGVPGSGVPGSGVPGSGVPGSGVPGSGVPGSGVPGSGVPGSGVPGSGVPGSGVPGSGVPGSGVPGSGVPGSGVPGSGVPGSGVPGSGVPGSGVPGSGVPGSGVPGSGVPGSGVPGSGVPGSGVPGSGVPGSGVPGSGVPGSGVPGSGVPGSGVPGSGVPGSGVPGSGVPGSGVPGSGVPGSGVPGSGVPGSGVPGSGVPGSGVPGSGVPGSGVPGSGVPGSGVPGSGVPGSGVPGSGVPGSGVPGSGVPGSGVPGSGVPGSGVPGSGVPGSGVPGSGVPGSGVPGSGVPGSGVPGSGVPGSGVPGSGVPGSGVPGSGVPGSGVPGSGVPGSGVPGSGVPGSGVPGSGVPGSGVPGSGVPGSGVPGSGVPGSGVPGSGVPGSGVPGSGVPGSGVPGSGVPGSG
B2: (VPGIG)96 (SEQ ID. NO: 14) (protein)
chain: VPGIGVPGIGVPGIGVPGIGVPGIGVPGIGVPGIGVPGIGVPGIGVPGIGVPGIGVPGIGVPGIGVPGIGVPGIGVPGIGVPGIGVPGIGVPGIGVPGIGVPGIGVPGIGVPGIGVPGIGVPGIGVPGIGVPGIGVPGIGVPGIGVPGIGVPGIGVPGIGVPGIGVPGIGVPGIGVPGIGVPGIGVPGIGVPGIGVPGIGVPGIGVPGIGVPGIGVPGIGVPGIGVPGIGVPGIGVPGIGVPGIGVPGIGVPGIGVPGIGVPGIGVPGIGVPGIGVPGIGVPGIGVPGIGVPGIGVPGIGVPGIGVPGIGVPGIGVPGIGVPGIGVPGIGVPGIGVPGIGVPGIGVPGIGVPGIGVPGIGVPGIGVPGIGVPGIGVPGIGVPGIGVPGIGVPGIGVPGIGVPGIGVPGIGVPGIGVPGIGVPGIGVPGIGVPGIGVPGIGVPGIGVPGIGVPGIGVPGIGVPGIGVPGIGVPGIGVPGIG
B3: G(VPGSG)48(VPGIG)48Y (SEQ ID. NO: 10) (protein)
chain: GVPGSGVPGSGVPGSGVPGSGVPGSGVPGSGVPGSGVPGSGVPGSGVPGSGVPGSGVPGSGVPGSGVPGSGVPGSGVPGSGVPGSGVPGSGVPGSGVPGSGVPGSGVPGSGVPGSGVPGSGVPGSGVPGSGVPGSGVPGSGVPGSGVPGSGVPGSGVPGSGVPGSGVPGSGVPGSGVPGSGVPGSGVPGSGVPGSGVPGSGVPGSGVPGSGVPGSGVPGSGVPGSGVPGSGVPGSGVPGSGVPGIGVPGIGVPGIGVPGIGVPGIGVPGIGVPGIGVPGIGVPGIGVPGIGVPGIGVPGIGVPGIGVPGIGVPGIGVPGIGVPGIGVPGIGVPGIGVPGIGVPGIGVPGIGVPGIGVPGIGVPGIGVPGIGVPGIGVPGIGVPGIGVPGIGVPGIGVPGIGVPGIGVPGIGVPGIGVPGIGVPGIGVPGIGVPGIGVPGIGVPGIGVPGIGVPGIGVPGIGVPGIGVPGIGVPGIGVPGIGY
B4: knob-(VPGSG)96Y (SEQ ID. NO: 8) (protein)
chain: VPGSGVPGSGVPGSGVPGSGVPGSGVPGSGVPGSGVPGSGVPGSGVPGSGVPGSGVPGSGVPGSGVPGSGVPGSGVPGSGVPGSGVPGSGVPGSGVPGSGVPGSGVPGSGVPGSGVPGSGVPGSGVPGSGVPGSGVPGSGVPGSGVPGSGVPGSGVPGSGVPGSGVPGSGVPGSGVPGSGVPGSGVPGSGVPGSGVPGSGVPGSGVPGSGVPGSGVPGSGVPGSGVPGSGVPGSGVPGSGVPGSGVPGSGVPGSGVPGSGVPGSGVPGSGVPGSGVPGSGVPGSGVPGSGVPGSGVPGSGVPGSGVPGSGVPGSGVPGSGVPGSGVPGSGVPGSGVPGSGVPGSGVPGSGVPGSGVPGSGVPGSGVPGSGVPGSGVPGSGVPGSGVPGSGVPGSGVPGSGVPGSGVPGSGVPGSGVPGSGVPGSGVPGSGVPGSGVPGSGVPGSGVPGSGVPGSGVPGSGVPGSGVPGSGVPGSGVPGSGY
B5: knob-(VPGIG)96Y (SEQ ID. NO: 9) (protein)
chain: VPGIGVPGIGVPGIGVPGIGVPGIGVPGIGVPGIGVPGIGVPGIGVPGIGVPGIGVPGIGVPGIGVPGIGVPGIGVPGIGVPGIGVPGIGVPGIGVPGIGVPGIGVPGIGVPGIGVPGIGVPGIGVPGIGVPGIGVPGIGVPGIGVPGIGVPGIGVPGIGVPGIGVPGIGVPGIGVPGIGVPGIGVPGIGVPGIGVPGIGVPGIGVPGIGVPGIGVPGIGVPGIGVPGIGVPGIGVPGIGVPGIGVPGIGVPGIGVPGIGVPGIGVPGIGVPGIGVPGIGVPGIGVPGIGVPGIGVPGIGVPGIGVPGIGVPGIGVPGIGVPGIGVPGIGVPGIGVPGIGVPGIGVPGIGVPGIGVPGIGVPGIGVPGIGVPGIGVPGIGVPGIGVPGIGVPGIGVPGIGVPGIGVPGIGVPGIGVPGIGVPGIGVPGIGVPGIGVPGIGVPGIGVPGIGVPGIGVPGIGVPGIGVPGIGVPGIGVPGIGY

Legend:
[1] = Dynamic light scattering of ELP nanoparticles; type: physicochemical; settings: for formation of nanoparticles: ELP without knob, S96 and I96 data not shown; for Hydrodynamic radius (nm) at 37° C.: 25 μM in PBS
Method: (§1) To explore the temperature-dependent phase behavior of the ELPs, optical density and hydrodynamic radius were observed over a range of temperatures. Knob-S96, S48148 and knob-S48148 were diluted to 25 μM in PBS on ice and the absorbance at 350 nm was monitored with a DU800 UV-Vis spectrophotometer (Beckman Coulter, Brea, Calif.) at a temperature gradient of 1° C./minute. […] Then 90 μL sample of was transferred into a 384 well microplate and covered with 20 μL mineral oil. The microplate and mineral oil were pre-chilled at 4° C. at least for 1 hour. The microplate was centrifuged at 4° C. to remove air bubbles from samples before and after addition of mineral oil. Then the sample was measured in a DynaPro plate reader (Wyatt Inc., Santa Barbara, Calif.) at temperature intervals of 1° C. The resulting hydrodynamic radii were collected and analyzed by Dynamics (Wyatt Inc., Santa Barbara, Calif.).

[2] = Temperature-dependent optical density (turbidity) of ELP fusion peptides; type: physicochemical; settings: for Critical aggregation temperature: optical density at 350 nm by UV-Vis spectrophotometer; for phase transition behaviour in optical density over temperature gradient: monoblock knob-ELPs, single increase in optical density
Method: as §1

[3] = tested on: transformed mouse hepatocytes; assay: Live cell uptake of rhodamine-conjugated ELP/knob-ELP in hepatocytes; type: cell-based; settings: 10 μM rhodamine-labeled, 30 minutes at 37° C., confocal microscopy, LYSOTRACKER green
Method: To track cellular uptake, the ELPs S48148 and knob-S48148 were conjugated with a detectable label, NHS-Rhodamine (Thermo Fisher Scientific Inc, Rockford, Ill.) via covalent modification of primary amines at the amino end of the peptide. For S48148, the only available amine is at the amino terminus; however, knob-S48148 has an additional 11 lysine residues that may be sites of modification. The conjugation was performed in 100 mM borate buffer for 2 hours at 4° C., and the conjugated ELP was separated by size exclusion chromatography on a PD10 desalting column (GE Healthcare, Piscataway, N.J.).
To observe uptake into mouse hepatocytes, cells were cultured on 35 mm glass coverslip-bottomed dishes with medium [(DMEM (4.5 g/L) containing 10% fetal bovine serum, g/ml insulin, and 0.02 [μg/ml epidermal growth factor]. Uptake studies were conducted when hepatocytes reached 70% confluence. After washing with warm fresh medium, hepatocytes were cultured in medium containing 10 μM of either S48148 or knob-S48148 conjugated with rhodamine, and 75 nM LYSOTRACKER® green. After 30 minutes incubation at 37° C., the cells were rinsed with warm fresh medium to remove the free knob-ELP/ELP in the medium. Next cells were incubated with 75 nM LYSOTRACKER® green in a 37° C. incubation chamber. […]

Row | Molecule | formation of nanoparticles [1] | Hydrodynamic radius (nm) at 37° C. ([1]; dynamic light scattering) [nm] | Critical aggregation temperature ([2]; 25 μM in PBS) [°C] | phase transition behaviour in optical density over temperature gradient [2] | other results
1 | B1 | do not form nanoparticles |  |  |  | 
2 | B2 | do not form nanoparticles |  |  |  | 
3 | B3 | form nanoparticles at physiological temperatures | 23.7 | 26.5 |  | size by dynamic light scattering (BSA; unimers of the ELPs) ([1]; BSA stable from 10 to 37° C., ELPs as unimers below assembly temperature): around 4 nm; critical nanoparticle temperature (CNT) ([1]; dynamic light scattering): 26.5 °C; hydrodynamic diameter of nanoparticles ([1]; dynamic light scattering, self-assembled nanoparticles): around 40 nm; Transition Temperature T1 ([2]; first phase transition, optical density, 25 μM in PBS): 26.5 °C; Transition Temperature T2 ([2]; second phase transition, optical density, 25 μM in PBS): 75 °C; cellular uptake / fluorescence localisation [3]: slightly more intense fluorescence on the cell surface
4 | B4 |  | 5.3 | 68.2 | well above physiological conditions | 
5 | B5 |  |  |  | phase-separates near room temperature | 
